Biological target: T1, nbr1_human NBR1 (UniProt Q14596)
T1 sequence: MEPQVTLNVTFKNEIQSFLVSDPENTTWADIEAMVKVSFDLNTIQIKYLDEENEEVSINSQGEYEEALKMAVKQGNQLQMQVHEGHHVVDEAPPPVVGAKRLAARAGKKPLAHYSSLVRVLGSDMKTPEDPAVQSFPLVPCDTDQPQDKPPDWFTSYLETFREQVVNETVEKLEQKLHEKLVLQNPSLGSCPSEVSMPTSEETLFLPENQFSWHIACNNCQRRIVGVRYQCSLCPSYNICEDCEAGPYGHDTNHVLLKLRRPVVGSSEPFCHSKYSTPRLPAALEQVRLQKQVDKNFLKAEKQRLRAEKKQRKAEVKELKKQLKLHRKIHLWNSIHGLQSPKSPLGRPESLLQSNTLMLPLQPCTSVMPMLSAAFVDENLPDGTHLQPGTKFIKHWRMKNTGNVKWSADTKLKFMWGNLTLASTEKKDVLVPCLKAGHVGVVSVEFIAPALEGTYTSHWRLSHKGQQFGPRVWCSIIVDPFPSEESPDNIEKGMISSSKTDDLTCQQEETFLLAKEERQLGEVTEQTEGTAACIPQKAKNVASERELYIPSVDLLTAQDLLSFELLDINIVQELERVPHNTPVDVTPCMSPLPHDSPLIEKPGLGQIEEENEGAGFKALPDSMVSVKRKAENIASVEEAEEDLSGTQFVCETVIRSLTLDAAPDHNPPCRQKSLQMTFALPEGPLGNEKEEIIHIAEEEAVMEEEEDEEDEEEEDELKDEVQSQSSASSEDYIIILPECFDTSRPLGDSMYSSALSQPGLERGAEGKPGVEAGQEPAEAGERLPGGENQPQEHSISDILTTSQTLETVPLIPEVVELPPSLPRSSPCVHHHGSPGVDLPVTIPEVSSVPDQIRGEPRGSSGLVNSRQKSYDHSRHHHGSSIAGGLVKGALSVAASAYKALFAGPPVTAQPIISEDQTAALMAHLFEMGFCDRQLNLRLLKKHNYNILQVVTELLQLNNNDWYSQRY

Microtubule-associated protein 1 light chain 3 beta (Homo sapiens) (from UniProt Q9GZQ8) R10A;R11A
effect of a mutation on the interaction: decreasing interaction

Microtubule-associated protein 1 light chain 3 beta (Homo sapiens) (from UniProt Q9GZQ8) R70A
effect of a mutation on the interaction: disrupting interaction

From IntAct's records for PubMed 19250911
